T1: T4 DNA ligase (UniProt P00970 1-487)
T1 sequence: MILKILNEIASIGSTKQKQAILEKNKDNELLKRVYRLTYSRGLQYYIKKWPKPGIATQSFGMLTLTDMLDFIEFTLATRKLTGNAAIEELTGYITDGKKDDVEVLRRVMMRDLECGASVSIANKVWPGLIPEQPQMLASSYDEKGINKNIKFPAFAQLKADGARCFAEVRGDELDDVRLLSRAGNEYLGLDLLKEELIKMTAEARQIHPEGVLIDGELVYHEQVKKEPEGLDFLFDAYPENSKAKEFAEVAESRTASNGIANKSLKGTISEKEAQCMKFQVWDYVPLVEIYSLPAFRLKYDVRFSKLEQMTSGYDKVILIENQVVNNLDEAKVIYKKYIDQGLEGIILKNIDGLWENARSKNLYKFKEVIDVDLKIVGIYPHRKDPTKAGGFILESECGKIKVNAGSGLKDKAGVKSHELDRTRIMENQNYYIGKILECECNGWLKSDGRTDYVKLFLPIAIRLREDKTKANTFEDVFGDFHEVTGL


Key:
Conditions in all cases: protein: commercial; blunt, no nick
T4 DNA ligase [1] = target: T1, T4 DNA ligase; assay: competition (nick-ligation inhibition, competitive fit); 1 mM ATP, 10 mM Mg2+; EMSA: 50 mM Tris pH 7.5, 5 mM DTT, 5 mM Mg2+, 1 mM sodium pyrophosphate, 5% glycerol, room temperature (22 C), 20 min; ligation competition: 50 mM Tris-HCl pH 7.5, 1 mM ATP, 10 mM MgCl2, 10 mM DTT, 16 C
T4 DNA ligase [2] = target: T1, T4 DNA ligase; assay: competition (nick-ligation inhibition); Ki x N sites; per binding site, N=34, assumed 24 bp footprint; derived from the Ki; EMSA: 50 mM Tris pH 7.5, 5 mM DTT, 5 mM Mg2+, 1 mM sodium pyrophosphate, 5% glycerol, room temperature (22 C), 20 min; ligation competition: 50 mM Tris-HCl pH 7.5, 1 mM ATP, 10 mM MgCl2, 10 mM DTT, 16 C
T4 DNA ligase [3] = target: T1, T4 DNA ligase; assay: competition (nick-ligation inhibition); Ki x N sites; per binding site, N~100, assumed 24 bp footprint; derived from the Ki; EMSA: 50 mM Tris pH 7.5, 5 mM DTT, 5 mM Mg2+, 1 mM sodium pyrophosphate, 5% glycerol, room temperature (22 C), 20 min; ligation competition: 50 mM Tris-HCl pH 7.5, 1 mM ATP, 10 mM MgCl2, 10 mM DTT, 16 C
T4 DNA ligase [4] = target: T1, T4 DNA ligase; assay: competition (nick-ligation inhibition, competitive fit); 20 nM FAM-labeled nicked substrate, 25 pM ligase, 1 mM ATP, 10 mM Mg2+, 16 C; EMSA: 50 mM Tris pH 7.5, 5 mM DTT, 5 mM Mg2+, 1 mM sodium pyrophosphate, 5% glycerol, room temperature (22 C), 20 min; ligation competition: 50 mM Tris-HCl pH 7.5, 1 mM ATP, 10 mM MgCl2, 10 mM DTT, 16 C

Row | Binder | Ki (T4 DNA ligase [1]) [µM] | Kd (T4 DNA ligase [2]) [µM] | Kd (T4 DNA ligase [3]) [µM] | Ki (T4 DNA ligase [4]) [µM]
1 | I-40-dsDNA (dsDNA) DNA 1: CACATATGAGAAGGTATTTGCCCGATAATCAATACTCCAG DNA 2: CTGGAGTATTGATTATCGGGCAAATACCTTCTCATATGTG | 0.2 ± 0.03 | 7 ± 1 |  | 
2 | I-75-dsDNA (dsDNA) DNA 1: AGAGAAGATGACTACTGAGTTGTGCGATCCCTGCACTTCAGCTAAGGAAGCTACCAATATTTAGTTTCCGAGTCT DNA 2: AGACTCGGAAACTAAATATTGGTAGCTTCCTTAGCTGAAGTGCAGGGATCGCACAACTCAGTAGTCATCTTCTCT |  |  | 10 ± 2 | 0.1 ± 0.02
